These are literature values, as cited in publication PMC7488126.

For orientation: Kd means the concentration at which binding is half-saturated.

Targets include B7H6 (Homo sapiens) (UniProt Q68D85); CD48 (Homo sapiens) (UniProt P09326); CD112 (Homo sapiens) (UniProt Q92692); CD155 (Homo sapiens) (UniProt P15151).
Sequence of UniProt Q92692 (Q92692 32-360): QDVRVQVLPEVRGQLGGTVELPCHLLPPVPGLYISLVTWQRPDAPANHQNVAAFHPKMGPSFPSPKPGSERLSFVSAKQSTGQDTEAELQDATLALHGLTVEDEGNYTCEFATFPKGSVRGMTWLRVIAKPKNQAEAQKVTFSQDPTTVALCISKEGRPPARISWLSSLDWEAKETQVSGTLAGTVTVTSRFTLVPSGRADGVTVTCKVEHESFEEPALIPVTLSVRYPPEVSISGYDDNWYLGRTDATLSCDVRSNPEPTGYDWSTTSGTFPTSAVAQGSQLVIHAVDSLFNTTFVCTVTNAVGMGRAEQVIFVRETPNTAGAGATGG
Sequence of UniProt P09326 (P09326 27-220): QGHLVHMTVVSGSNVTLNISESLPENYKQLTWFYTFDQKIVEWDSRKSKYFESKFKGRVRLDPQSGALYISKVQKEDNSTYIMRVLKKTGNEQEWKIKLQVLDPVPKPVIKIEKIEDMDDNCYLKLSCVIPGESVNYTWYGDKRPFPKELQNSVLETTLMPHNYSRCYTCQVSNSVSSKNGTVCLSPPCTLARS
Sequence of UniProt P15151 (P15151 21-343): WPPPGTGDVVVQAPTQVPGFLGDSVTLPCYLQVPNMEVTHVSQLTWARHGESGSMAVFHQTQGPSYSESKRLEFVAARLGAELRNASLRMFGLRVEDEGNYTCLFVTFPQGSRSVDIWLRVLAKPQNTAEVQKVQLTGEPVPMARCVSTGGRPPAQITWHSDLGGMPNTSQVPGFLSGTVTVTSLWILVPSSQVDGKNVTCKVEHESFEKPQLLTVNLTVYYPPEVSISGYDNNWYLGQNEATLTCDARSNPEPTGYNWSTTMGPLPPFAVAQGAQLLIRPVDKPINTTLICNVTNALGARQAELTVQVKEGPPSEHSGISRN
Sequence of UniProt Q68D85 (Q68D85 25-262): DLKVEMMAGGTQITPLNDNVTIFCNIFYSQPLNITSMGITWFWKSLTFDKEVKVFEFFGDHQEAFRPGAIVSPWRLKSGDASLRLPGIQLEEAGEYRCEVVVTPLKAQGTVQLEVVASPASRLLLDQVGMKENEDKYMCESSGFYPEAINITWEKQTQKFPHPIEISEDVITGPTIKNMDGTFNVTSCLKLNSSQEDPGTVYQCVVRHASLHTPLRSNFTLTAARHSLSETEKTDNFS

Regarding “NKp30 Ig variable domain (from UniProt O14931)”, the Kd with B7H6 (Homo sapiens) is 1000 nM.
Consider 2B4 ECD (from UniProt Q9BZW8), for which the Kd in the data set with CD48 (Homo sapiens) was 8000 nM.
As to DNAM-1 (from UniProt Q15762), the Kd with CD112 (Homo sapiens) was 310 nM; in the data set with CD155 (Homo sapiens), 230 nM.
